According to the DeepSol protein solubility set:

Test: soluble on expression in E. coli; label from the status in PepcDB or PDB records

| Sequence | soluble on expression in E. coli |
| --- | --- |
| MGSDKIHHHHHHMDDYGYRALPDALGTTYGSYLSAKSASGRYTVYVGANDGMLHAFDAGMTADGSMDASGGLERFAYIPATALGHMGNLLLPSDPTNRTTEYEHRYYVDGPVVVGDANYAGSWKTVVVGAAGAGGRSIFALDVTNPSNFSTSSKLWEISDLDSSLSTAIRNNIGHVLGKPVIVPVKNAAGAVTWKAIFGNGYNSRNGKAVLFVVDIKTGAPAVTMIEATETGSTIAGSNGLGNIVVVDRWGGASQTDGVRDGYADTVYGADQKGAIWKFDLRSSAASVTVPFFTTRTSVESGQTYRQPITGGLVATAGDAGGVMLFFGTGSFSFESDPKDEAIQSLYGVNDTVRGAPLTTATRANLRGSTVVQDGDRTLSRAAAPANSQGWYVDLPAKERMVGSPSIASGIVFIPTYTPAVVSSGCKPDGANWLFGLDTRTGDGALMDARKGSPTGASFASRTAATPLTTSGNAPVKDVGVSAIPRLSPAESGSAPGGQACWMVVTAAGSGPLYIPYPCGRQSWRQVQ | not soluble |
| MGKRVVYPGTFDPPHYGHLDIVKRSARIFDEVVVAVAKKPRKFLLFDAEERVKMFEKMVEDIPNVEVKMFDCLLVDFMKREGINVIVRGVRLFTDFEYELQIALTNYKLAGVETVFMMPSQEYIHISSTIVRDVASYCGDLDNMVHPYVKQKLREKFNCGS | soluble |
| MSLKLKIADIAMRTGLSSSTVSRVLAGKANTSYRAREKVLACARELGVMDGMASGRMLLNNLVIFAPQRAFDERTDIFYFRVIQSISKALSHYEVRLRYCALDEFDSTPSKFLARMNEAETQAAILLGIDDPHIHDLAADFSKPCVMINCHDRRMRLPTVAPDHKNIGAFASHFLFEMGHRRVMNIMCLRRYTMELRLAGIKEAWERQNQNFKDDRDLLTINSFSAKEAEEKVGAWLDMTEKSMLPTAFLASGDFIAAGIINALKKRNIRVPQDVSVMSIDGFNLAAIEDVPLTAVHVPRDELGTEAVHMLQQRLVRPDATVGALLLYGKLVIRESVREGHHHHHH | not soluble |
| MPEVSFIICTRNRVAVLEACLKSVQAACRAHAGFAAELVVVDNGSSDRTAERLASIAAMSDIPFTPVSEPRRGLAAARNAGLRRARGRVLVFVDDDCAVHCDYLRDLERHYASGEQGLIRGGRVELGDPRDLPFTIKRSRVCERLTPDIHPGGFVLGCNMTMHRDVAARIGDFDERFGAGGPLRSAEDTDYLVRAVLLGIPVEYVPDMTIFHHHGRRDRKAIEKLHRDYSLGNGGLCLKHIRHAPWLLRHFYWAARGALRELAGGPAFDRDLDLSHRPIVGMNVLGAARYALLLLARRPQAEPARQDQQANAEAPLLEHHHHHH | not soluble |
| MSLDQPLTFYGLKSMSGAFASYGKYADMGSRLAIAEHPQLLGHPLKYKVIDTEGNAGKAVRKVQEAIGQDGARFFQGCTLSSSALAVSKEIHKAGGVFMTPVGADEITGKDCNASTFRWSVPTYGAIRETLVPMSRQLPQAKRWYTITPQYVFGDALLDNARKVFAELGVEHIGNSYHSLQEQEFSGYLTNAIAAKPDVLVLLNFGSQASNALRQAVNFGIKDRMKVLMVWSAGLDQFQELGSDVLEGVYLGAQYWHQVDTPLNKLLVAATRKAYGINPNYPLAADYIGTKVMLEAIVKAGSLDGAAVSAALQGMRFQGPTGEELIRPGDHQVLKDYYLLRGKPQGQMRDEGHHHHHH | not soluble |
| MSLKYEYCPICGKKLEKKYSYDEGDVPYCQKDKIMFFDVPKPCVLVAVIKGQEILLLKQEYTFKDSKILVSGYVANGETVEETVVREVKEEVGIIVEKPEYLGSYYFKPKELIMLTFMVRYVSGEITKSQEVDEAYWVNMRDVLQEMNEDKVGKDVVKKVFKRIGYNEEKYLHKEGHHHHHH | not soluble |
| MGSDKIHHHHHHMADGTSLSIDAKPTEEFSVREVFGIDTDMKVKGFAEPTDRVPAIDPTYKFDPDTTLAILAGYGYNRRVMVQGYHGTGKSTHIEQVGARLNWPTVRVNLDSHISRIDLIGKDAIKLRDGKQVTEFHEGILPWALRNPVAIVFDEYDAGRADVMFVIQRVLETDGKLTLMDQNEIITPNPCFRLFATANTVGLGDTTGLYHGTQQINQAQMDRWSLVATLNYLRHDAEVNIVLAKCPHYNTETGRKTMNQMVTVADLTRTAFMNGELSTVMSPRTVINWAQNAEIFRDVGYAFRVSFLNKCDELERQTVAEFYQRCFDEELPESAASMSLG | not soluble |
| MFKRVHLIVLDSVGIGEAPDAEKFGDVGSDTLGHIAKEAGLTIPHLEKLGLGTIAPLTGVKAVADHDGYATKLEEISVGKDTMTGHWEIMGLNIKKPFRVFPNGFPEELLKQIEDFSGRKVVCNKPYSGTAVIDDYGEHQMKTGDLIVYTSADPVLQIAAHEDIIPLEELYKICQYVRDITKDEPYMIGRIIARPYVGEPGNFTRTSNRHDYALDPFGHTVLDSLKENGNDVIAVGKINDIFNGQGITEAIRTKSNMDGVDQLLTVMNKEFTGLSFTNLVDFDALYGHRRDVKGYAKAIEDFDGRLPEIMAAMAEDDLLLITADHGNDPTFPGTDHTREYVPLLAYSKKMTKQGSLPQGFYSDISATIAENFEVPATENGQSFLNQLQ | not soluble |
| MSRDTERYPVKHANSLWQIYKTVPFWKVVKNFVVIQLARYTPFVSVKNWLYRTFLKMDVGEKTAFALMVMPDIMFPERISVGRNSIIGYNTTILAHEYLIEEYRLGDVIIGDEVMVGANTTILPGVTIGDRAIIAAGTVVHKNVPPGAFVGGNPMQVIKQLEHHHHHH | not soluble |
| MTKHPPNRRGISFEVGAQLEARDRLKNWYPAHIEDIDYEEGKVLIHFKRWNHRYDEWFCWDSPYLRPLEKIQLRKEGLHEEDGSSEFQINEQVLACWSDCRFYPAKVTAVNKDGTYTVKFYDGVVQTVKHIHVKAFSKDQNIVGNARPKETDHKSLSSSPDKREKFKEQRKATVNVKKDKEDKPLKTEKRPKQPDKEGKLICSEKGKVSEKSLPKNEKEDKENISENDREYSGDAQKKTSQTPFHSSYCCGFKLSNFATQLEHHHHHH | soluble |
| GPLGSPWYYGKVTRHQAEMALNERGHEGDFLIRDSESSPNDFSVSLKAQGKNKHFKVQLKETVYCIGQRKFSTMEELVEHYKKAPIFTSEQGEKLYLVKHLS | soluble |
| MPISELEKKWTGLTFEIAAEEMRRLKSEPTDRERLKLYALYKQALHGDIPNEDVYPVPAGDEVGRKKYAAWKSQKGANSEKCRADYVAIAEEMIKKYGRNIVRCKWNSEVWSVDY | soluble |
| MDGGFVRVCLLASGSKGNSLFVESDGTRVLIDAGLSAREIVRRLAVIEVEPADLDGLFISHEHVDHVRGVGVLARKYRLPVHVSYPTHHEVREGFGDAPVVEFESGYSFGFRDLLIDPFPITHDACDPVGFTIESKEGKVGIATDLGTATRLVADKLKRCRVLVLESNHDEEMLMGGPYPWHLKQRIKSRHGHLSNNDSAALLAEVLHPGLEGLFLAHLSEVNNDPAVAKEVAENLLVAQTTCSPRLIVGDQYRPSETLTLLEHHHHHH | soluble |
| MGSDKIHHHHHHDSFLDEKMYSSYGPEVSDVNAKLVGLHRQYAAIWGMSSQQGFVGCWQVGTDVGAPGDTQGVEVPFYRYQELNAENAGVSFLWEKLYELINSANQIIASQAEGGDAAATAEAMFFRAYAYNMLVTLWGDVPLVTESTSIPRTDYTRNAVAEVDGVIDSDLVYAMSNLPVVGAAKNESRINQDMARQLAGEAYLRMGMRDASYFKKAEDAVTPIITGGKYELISARYGKYAAEPGDYYHDMFRWGNQRRSQGNMEAIWTFEMEYNRDVNGGTIDNPQQRRNWVPAFHKLDGMVNADSIGGRGNGRLRISNFVKYGLYEKGDIRNSNYNIRRVMWYNKPGFSKEVGIDAKGFLVDKDKGIRNVTLKTGDQVIPHEGDSLNVFYPHPTKWGAYDETDDFGYAVVKDWPVMRLGETYLLRAEARFRQGNTQGAADDINVLRDRAFKDYRAVAPGAGKVTADQIDIDFILDERARELISEENRRMTLVRTNTLAERIKLNGDMEPAAPSNKVITGFDANIHTLLPIPLTEIQLNKDGDLKQNPGY | not soluble |
| MSAACWEEPWGLPGGFAKRVLVTGGAGFIASHMIVSLVEDYPNYMIINLDKLDYCASLKNLETISNKQNYKFIQGDICDSHFVKLLFETEKIDIVLHFAAQTHVDLSFVRAFEFTYVNVYGTHVLVSAAHEARVEKFIYVSTDEVYGGSLDKEFDESSPKQPTNPYASSKAAAECFVQSYWEQYKFPVVITRSSNVYGPHQYPEKVIPKFISLLQHNRKCCIHGSGLQTRNFLYATDVVEAFLTVLKKGKPGEIYNIGTNFEMSVVQLAKELIQLIKETNSESEMENWVDYVNDRPTNDMRYPMKSEKIHGLGWRPKVPWKEGIKKTIEWYRENFHNWKNVEKALEPFPV | soluble |
| MGNRIPDEIVDQVQKSADIVEVIGDYVQLKKQGRNYFGLCPFHGESTPSFSVSPDKQIFHCFGCGAGGNVFSFLRQMEGYSFAESVSHLADKYQIDFPDDITVHSGARPESSGEQKMAEAHELLKKFYHHLLINTKEGQEALDYLLSRGFTKELINEFQIGYALDSWDFITKFLVKRGFSEAQMEKAGLLIRREDGSGYFDRFRNRVMFPIHDHHGAVVAFSGRALGSQQPKYMNSPETPLFHKSKLLYNFYKARLHIRKQERAVLFEGFADVYTAVSSDVKESIATMGTSLTDDHVKILRRNVEEIILCYDSDKAGYEATLKASELLQKKGCKVRVAMIPDGLDPDDYIKKFGGEKFKNDIIDASVTVMAFKMQYFRKGKNLSDEGDRLAYIKDVLKEISTLSGSLEQEVYVKQLASEFSLSQESLTEQLSVFSKQNKPADNSGETKTRRAHLTTKARQKRLRPAYENAERLLLAHMLRDRSVIKKVIDRVGFQFNIDEHRALAAYLYAFYEEGAELTPQHLMARVTDDHISQLLSDILMLQVNQELSEAELSDYVKKVLNQRNWSMIKEKEAERAEAERQKDFLRAASLAQEIVTLNRS | not soluble |
| MGTITGEFTEHSAEAIAAMLSYIVQTEYEKKQLAKDTLQKYEEVVFLSQFANAVATCTGLQELIEVIRAEIRQVISVDEIFLYLYDQSQDSLTPLLYKTEESLQNFKAIEKIVERVLKLNQVEVIDDIQNDQDYLNQPSKIRSLLCYSLTVQNSIIGVLGLAHYQVKHFDSSDLNLFSTLTGQVAAAIRTAQYYETIKNYSQTLEIRLEHHHHHH | not soluble |
| MGSDKIHHHHHHMTAASSVSAPGAPTIGVDFGTTNTVVSLTLGDDQARLVRYSINNRDLFAFRSALSFHSVQGVGEAANERVVEAGPWAIEAYLEDPLETRFIQSFKTFAASAAFTETRILNKRYQFEDLLAAFLLRLRDHAGAQLSELPPRIIVGRPVTFAGSSPDEALALTRYEAAFERLGFTDIRYAYEPVGAAFFFARQLKQDATVLVADFGGGTSDFSLVRFERAADGTLRSTPLSRSGVGVAGDAFDYRIIDQLVSPELGKGSDYRSFSNSLPIPQRYYAAFARWDQLALLRASKDMRDIRALERTAVEPDKIAALIEVLDGNHGYALYRSVSALKEALSSQDQATFRFEAGSVRIEKPVARVEFEAWIAPELAAIETAVGQALDQADLTEAGVDRVFLTGGSSFVPAVREIFLRRFGADKIETGGEFESIASGLALIGREADLDLWTMRAG | not soluble |
